Measured values taken from patent US20120141463A1.

Molecular target: membrane anchored IgE on transfected 293 cells (human) (UniProt P01854)
Test: cell-based or functional assay

Sequence of membrane anchored IgE on transfected 293 cells (human) (P01854 whole entry): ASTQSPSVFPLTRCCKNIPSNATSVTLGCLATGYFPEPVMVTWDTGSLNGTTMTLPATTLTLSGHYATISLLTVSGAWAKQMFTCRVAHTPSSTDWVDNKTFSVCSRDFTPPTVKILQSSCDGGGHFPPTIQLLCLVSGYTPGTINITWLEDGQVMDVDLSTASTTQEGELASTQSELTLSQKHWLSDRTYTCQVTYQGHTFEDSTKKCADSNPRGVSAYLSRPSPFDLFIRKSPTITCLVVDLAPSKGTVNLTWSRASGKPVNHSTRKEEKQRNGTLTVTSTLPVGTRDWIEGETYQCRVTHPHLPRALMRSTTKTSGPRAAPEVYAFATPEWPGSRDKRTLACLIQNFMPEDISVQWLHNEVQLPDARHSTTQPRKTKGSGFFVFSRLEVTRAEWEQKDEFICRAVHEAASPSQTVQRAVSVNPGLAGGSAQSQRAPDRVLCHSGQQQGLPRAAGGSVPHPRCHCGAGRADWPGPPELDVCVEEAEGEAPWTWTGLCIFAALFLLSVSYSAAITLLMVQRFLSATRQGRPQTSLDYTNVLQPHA

B1: D5 antibody (antibody, V domains shown)
VH: EVQLLESGGGLVQPGGSLRLSCAASGFTFSKYHMVWVRQAPGKGLEWVSSIGPSGGNTYYADSVKGRFTISRDNSKNTLYLQMNSLRAEDTATYYCARALGATFDYWGQGTLVTVSS
VL: DIQMTQSPLSLPVTLGQPASISCKSSQSLVYRDGITYLSWFQQRPGQSPRRLIYKVSNRDSGVPDRFSGSGSDSNFTLKISSVEAEDVGLYFCMQGSHWPFTFGPGTKVDIKR
- ADCC activity (% cytotoxicity, LDH release, PBMC effectors): < 70%
